This passage reports IC50 results from US20100279930A1 (published 2010).

Read-outs that look alike come from different tables or passages of the source. No end group written: not given here.

The target in assay [1] is T1, human Y4 receptor (human, UniProt P50391 1-375). The experiment in a line: 125I-PP displacement.
Assay [2] has as its target T1, human Y4 receptor. The experiment in a line: 125I-PP displacement. This is another data set of the same source.

T1 sequence (P50391 whole entry): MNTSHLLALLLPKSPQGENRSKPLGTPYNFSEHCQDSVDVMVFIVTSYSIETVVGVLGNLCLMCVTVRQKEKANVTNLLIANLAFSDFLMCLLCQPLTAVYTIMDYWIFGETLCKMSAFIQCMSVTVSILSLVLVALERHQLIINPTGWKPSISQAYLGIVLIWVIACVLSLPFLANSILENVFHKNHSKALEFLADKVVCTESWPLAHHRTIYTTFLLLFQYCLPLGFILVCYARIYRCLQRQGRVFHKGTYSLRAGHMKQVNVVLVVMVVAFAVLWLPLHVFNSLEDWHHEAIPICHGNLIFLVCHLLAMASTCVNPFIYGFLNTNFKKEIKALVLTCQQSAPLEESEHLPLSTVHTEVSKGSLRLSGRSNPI

PAPLEPHFPGDNATPEEMAKYAAELRRYINKLTRPRY [4059940]: the IC50 – broadly, the concentration that gives 50% inhibition – in assay [1] was 115 pM.

In assay [1], DAPLEPRYPGDNATPEEMAKYAAELRRYINKLTRPRY [4060145] returned a half-inhibitory concentration (IC50) of 173 pM.

For the molecule PAPLEPTYPGDNATPEQKAKYAAELRRYINKLTRPRY [4060203], the concentration for half-maximal inhibition (IC50) in assay [1] was 67 pM. On the same count and under the same terms, as for DAPLEPEYPGDDATPEEMAKYAAELRRYINKLTRPRY [4059971], the figure is 228 pM; as for PAPLEPKYPGDNATPEELARYAAELRRYINKLTRPRY [4060138], 136 pM; as for GAPLEPHFPGDNATPEEMAKYAAELRRYINKLTRPRY (ends and bridges not checked) [compound of SEQ ID NO:1092], 90 pM. The molecule PAPLEPHYPGDNATPEEMAKYAAELRRYINKITRPRY [4059943] showed a 50% inhibitory concentration (IC50) in assay [1] of 77 pM. With PAPLEPHYPGDNATPEEMAKYAAELRRYLNKLTRPRY [4059951], the IC50 in assay [1] is 93 pM. As to GAPLEPHAPGDNATPEEMAKYAAELRRYINKLTRPRY (ends and bridges not checked) [compound of SEQ ID NO:1090 (code 4059937)], in assay [1], the IC50 was determined as 209 pM. The same measure, in the same setting: as for PAPLEPHAPGDNATPEEMAKYAAELRRYINKLTRPRY [4059938], the figure is 128 pM; as for PAPLEPHYPGDNATPEELARYAAELRRYINKLTRPRY [4060139], 121 pM; as for PAPLEPEYPGDDATPEQMAKYAAELRRYINKLTRPRY [4060205], 112 pM. On the same count and under the same terms, as for GAPLEPHYPGDNATPEEMAKYAAELRRYINKITRPRY [4059942], the figure is 73 pM.

With PAPLEPEAPGDNATPEQMAKYAAALRRYINKLTRPRY [4059974], the IC50 in assay [1] came to 97 pM. GAPLEPRYPGDNATPEEMAKYAAELRRYINKLTRPRY [4060144]: in assay [1], the IC50 was found to be 101 pM. As to PAPLEPHYPGDNATPEEMAKYASELRRYINKLTRPRY [4059936], the half-inhibitory concentration (IC50) in assay [1] was 118 pM. On the same count and under the same terms, as for PAPLEPTYPGDNATPEELARYAAELRRYINKLTRPRY [4060141], the figure is 151 pM. Molecule PAPLEPVYPGDNATPEQMAHYAAELRRYINKLTRPRY [4057152] gave an IC50 in assay [2] of 141 pM. GAPLEPTYPGDNATPEQLAKYAAELRRYINKLTRPRY [4060207]: the IC50 in assay [1] is 90 pM. PAPLEPVYPGDNATPEQTAKYAADLRRYINKLTRPRY [4057148]: in assay [2], the IC50 was 69 pM. Molecule PAPLKPKAPGDNATPEQLAKYAAELRRYINKLTRPRY [4059862] showed a 50% inhibitory concentration (IC50) in assay [1] of 71 pM. On the same count and under the same terms, as for HAPLKPTYPGDNATPEQLAKYAAELRRYINKLTRPRY [4059863], the figure is 68 pM; as for YAPLKPEYPGDNATPEQLAKYAAELRRYINKLTRPRY [4059856], 80 pM. In turn, PAPLKPTYPGDNATPEQLAKYAAELRRYINKLTRPRY [4059864] had an IC50 in assay [1] of 70 pM.

Consider PAPLEPTYPGDDATPEQLAKYAAELRRYINKLTRPRY [4060208], for which, in assay [1], the IC50 came out at 126 pM.

For the molecule GAPLEPVYPGDNATPEELARYAAELRRYINKLTRPRY [4060134], in assay [1], the half-inhibitory concentration (IC50) was 143 pM.

For GAPLEPTYPGDNATPEQKAKYAAELRRYINKLTRPRY [4060204], the concentration for half-maximal inhibition (IC50) in assay [1] worked out at 73 pM. On to HAPLEPVYPGDNATPEQMARYAAELRRYINKLTRPRY [4057228], for which the IC50 in assay [2] was found to be 68 pM. Consider GAPLEPKYPGDDATPEELAKYAAELRRYINKLTRPRY [4060142], for which the half-maximal inhibitory concentration (IC50) in assay [1] turned out to be 143 pM.

AAPLEPEYPGDNATPEQMAKYAASLRRYINKLTRPRY [4060146] came in with a 50% inhibitory concentration (IC50) in assay [1] of 106 pM. In the case of GAPLEPVYPGDNATPEQMARYAADLRRYINKLTRPRY [4057336], the IC50 in assay [2] came out at 90 pM. In turn, GAPLEPEYPGDNATPEQMARYAASLRRYINKLTRPRY [4060202] yielded an IC50 in assay [1] of 61 pM.

Take PAPLKPEYPGDNATPEQLAKYAAELRRYINKLTRPRY [4059859]: the IC50 in assay [1] worked out at 108 pM. In assay [2], APLEPVYPGDNATPEQMAKYYSELRRYINKLTRPRY [4057270] returned an IC50 of 85 pM. For APLEPVYPGDNATPEQMARYAAELRRYINKLTRPRY [4057160], in assay [2], the 50% inhibitory concentration (IC50) came to 59 pM.

On to DAPLEPVYPGDNATPEQMARYAADLRRYINKLTRPRY [4057337], for which, in assay [2], the IC50 is 109 pM.

PAPLEPVYPGDNATPEQMAKYAADLRRYINKLTRPRF [4057235] registered an IC50 in assay [2] of 59 pM. Still for that read-out and setting: as for PLEPVYPGDNATPEQMARYAADLRRYINKLTRPRY [4057334], the figure is 82 pM. Still for that read-out and setting: as for PLEPEYPGDDATPQQMAKYAADLRRYINKLTRPRY [4057256], the figure is 73 pM.

On to AAPLEPHYPGDNATPEQLARYYSELRRYINKLTRPRY [4059969], for which the IC50 in assay [1] came to 50 pM. Still for that read-out and setting: as for AAPLEPVYPGDDATPQQMARYYSELRRYINKLTRPRY [4060214], the figure is 35 pM.

In turn, DAPLEPVYPGDNATPEQMAKYYSELRRYINKLTRPRY [4060148] returned a concentration for half-maximal inhibition (IC50) in assay [1] of 95 pM. Turning to AAPLEPTYPGDNATPEQLARYYSELRRYINKLTRPRY [4060212], the IC50 in assay [1] was 67 pM. The same measure, in the same setting: the value for GAPLEPHYPGDNATPEQLARYYSELRRYINKLTRPRY [4059967] was 64 pM; that for GAPLEPVYPGDNATPEQMAKYYSELRRYINKLTRPRY [4060147] was 77 pM. On the same count and under the same terms, the value for AAPLEPHYPGDNATPEEMARYYSELRRYINKLTRPRY [4059965] was 83 pM. Consider GAPLEPTYPGDNATPEQLAKYYSELRRYINHLTRPRY [4060272], for which, in assay [1], the 50% inhibitory concentration (IC50) came to 95 pM. On the same count and under the same terms, as for PAPLEPTYPGDNATPEQLAKYYSELRRYINHLTRPRY [4060273], the figure is 118 pM.

In assay [1], GAPLEPTYPGDNATPEQLARYYSELRRYINKLTRPRY [4060211] gave an IC50 of 75 pM. Take AAPLEPEAPGDNATPEQMAKYAAALRRYINKLTRPRY [4059976]: in assay [1], the half-inhibitory concentration (IC50) worked out at 122 pM.

B1: 4057255 (protein)
chain: CAPLEPVYPGDNATPEQMARYAADLRRYINKLTRPRYCAPLEPVYPGDNATPEQMARYAADLRRYINKLTRPRY
In assay [2], B1 registered a half-maximal inhibitory concentration (IC50) of 220 pM.

B2: 4057260 (protein)
chain: CAPLEPEYPGDDATPQQMAKYAADLRRYINKLTRPRYCAPLEPEYPGDDATPQQMAKYAADLRRYINKLTRPRY
On to B2, for which the concentration for half-maximal inhibition (IC50) in assay [2] was 209 pM. PAPLEPSYPGDDATPQQMAKYAAELRRYINKLTRPRY [4057442] yielded a half-maximal inhibitory concentration (IC50) in assay [2] of 101 pM. On the same count and under the same terms, the value for EPLEPEYPGDDATPQQMARYAAELRRYINKLTRPRY [4057274] was 103 pM.
